Laboratory results taken from patent US8603466 (KING S COLLEGE LONDON, dated 2013).

Legend:
[1] = target: T1, human TSHR immobilised on coated tubes (TRAK II [DYNOtest human] kit) (human, UniProt P16473 21-764, limits assumed); assay: TBII assay, displacement of 125I-TSH from human TSHR coated tubes (TRAK II DYNOtest human)
T1 construct: Receptor of a bought kit; also called human TSHR coated tubes; immobilized human TSHR

[2] = target: T1, human TSHR immobilised on coated tubes …; assay: saturation binding of 125I-IgG on human TSHR coated tubes (TRAK II DYNOtest human); printed as Kd but expressed as reciprocal Kd (L/mol)
Procedure: Free isotope was removed by gel filtration in SEPHAROSE™ G25 columns and specific activity calculated (7). Antibody affinity was measured by saturation binding analysis. […] The affinity results were expressed as reciprocal Kd values (L/mol).
The labeled IgG and Fab fragments of the mabs were then used as tracers in competition studies to study the epitopes on the receptor. […] Serum from normal individuals, with no family history of autoimmunity were used as controls.

[3] = target: human TSHR on stably transfected CHO cells (human, UniProt P16473 21-764); assay: cell-based or functional assay

IC50 [1] | Ka [2] | EC50 of cAMP stimulation, NaCl-free sucrose HBSS [3] | EC50 of cAMP stimulation, physiological NaCl HBSS [3] | IgG concentration giving 3 fold cAMP stimulation [3] | maximal stimulation of cAMP, fold over basal value [3] | Binder
3.3 ng/mL | 4.5e+10 M⁻¹ | 9.4 ng/mL | 16.5 ng/ml | 1.2 ng/mL | 199 fold over basal | KSAb1 IgG (antibody, V domains shown, also called mAb9; IgG 9) VH: EVQLQQSGPELVKPGASMKISCKASGYSFSAYTMNWVKQSHGKNLEWIGLINPYNGGTNYNQEFEGKATLTVNKSSNTAFMELLSLTSDDSAVYYCARRDWDYFDYWGQGTTLTVSS VL: DIVMTQSQKFMSTSVGDRVSIICKASQNVGTFVAWYQQKPGQSPKLLVYSASNRYTGVPDRFTGSGSGTDFTLTINNMQSEDLADYFCRQYSSYPYTFGGGTKLEI
10 ng/mL | 6.25e+10 M⁻¹ | 93 ng/mL | 100 ng/ml | 2.2 ng/mL | 183 fold over basal | KSAb2 IgG (antibody, V domains shown, also called mAb17; IgG17) VH: EVQLQQSGPELVKPGASMKISCKASGYSFTAYTMNWVKQTHGKNLEWIGLINPYNGGTNYNQKFEDKATLTVDKSSNTAYMDLLSLTSEDSAVYYCARRDWDYFDYWGQGTTLTVSS VL: DVVMTQSQKFLSTSAGDRVSISCKASQNVGTALAWYQQKPGQSPKLLIYSASNRNTGVPDRFTGRGFGTDFTLTISNMQSEDLADYFCQQYSSYPYTFGGGTRLEI
